In patent US20240352134A1 (NANJING IMMUNOPHAGE BIOTECH, published 2024):

Assays:
human CCR8 [1] = target: T1, human CCR8 (human, UniProt P51685 1-355); assay: cell-based or functional assay
human CCR8 [2] = target: T1, human CCR8; assay: FACS on 293F-CCR8 cells
Experimental: The affinity of anti-CCR8 antibodies was evaluated by FACS. […] Affinity analyses were generally carried out as follows. […] The test antibodies were diluted with PBS/0.5 BSA (1:3 series dilution from 225 μg/mL to 0.00381 μg/mL). The transfected cells along with parent non-transfected cells were distributed into 96-well round-bottom polystyrene plates and incubated with the diluted antibodies on ice for 20-30 minutes. Next, the samples were washed with PBS/0.5 BSA and the cells were centrifuged. The pelleted cell samples were incubated with the second antibody of anti-mouse IgG-FITC-at 1:300 dilution in 100 μL PBS/0.5% BSA on ice for 30 minutes, and then washed with PBS/0.5% BSA, followed by pelleting the cells. The cell pellets were re-suspended in PBS/0.5% BSA for reading, and samples were analyzed using CYTOFLEX (Beckman).

T1 sequence (P51685 whole entry): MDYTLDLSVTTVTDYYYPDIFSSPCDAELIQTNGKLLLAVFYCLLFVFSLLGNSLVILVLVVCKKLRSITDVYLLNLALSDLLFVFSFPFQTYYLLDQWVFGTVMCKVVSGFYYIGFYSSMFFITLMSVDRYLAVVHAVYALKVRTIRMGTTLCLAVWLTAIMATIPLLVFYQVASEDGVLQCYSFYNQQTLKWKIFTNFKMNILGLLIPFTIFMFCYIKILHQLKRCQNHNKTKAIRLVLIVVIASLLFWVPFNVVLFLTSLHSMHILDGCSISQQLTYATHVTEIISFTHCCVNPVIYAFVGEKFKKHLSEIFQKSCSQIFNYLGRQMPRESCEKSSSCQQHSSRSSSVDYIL

| Binder | Tango IC50 (human CCR8 [1]) [nM] | EC50 (human CCR8 [2]) [nM] |
| --- | --- | --- |
| 4D24 (antibody, V domains shown, Mouse hybridoma monoclonal antibody) VH: EVQLVESGGGLVQPKGSLKLSCAASGFSFNPYAMNWVRQSPGKGLEWVARIRSKSNNYATYYADSVKDRFTISRDDSESMLYLQMNNLKTEDTAMYYCVRQGWVKRYFDVWGTGTTVTVSS VL: GNVLTQSPAIMSASPGEKVTMTCSASSSGTYMHWYQQKSTTSPKLWIYDTSKLASGVPGRFSGSGSGNSYSLTISSMEAEDIATYYCFQGSGYPLTFGSGTKLEIK | 0.67 | 0.888 |
| 3C11 (antibody, V domains shown, Mouse hybridoma monoclonal antibody) VH: EFQLQQSGPELVKPGASVKISCKTSGYSFTDYNINWVKQSNGKSLEWIGLINPNHGTTKSNQKFKGKATLTVDQSSSTAYMQLSSLTSEDSAVYYCARHDYDGAYWGQGTLVTVSA VL: DVVMTQTPLSLPVSLGDQASISCRSSQSLIHSNGNTYLHWYLQKPGQSPKLLIYKISNRFSGVPDRFSGSGSGTDFTLKISRVEAEDLGVYFCSQSTRAPWTFGGGTKLEIK | 4.08 | 4.25 |
| 2P15 (antibody, V domains shown, Mouse hybridoma monoclonal antibody) VH: EVQLVESGGGLVQPKGSLKLSCAASGFSFNAYAMNWVRQAPGKGLEWVARMRSKSNYYATYYADSVKDRFTISRDDSESMLYLQMNNLKTEDTAMYYCVRQTYGSKDYAMDYWGQGTSVTVSS VL: DVVMTQTPLSLPVSLGDQASISCRSSQSLVHSNGNTYFHWYLQKPGQSPKLLIYKVSNRFSGVPDRFSGSGSGTDFTLKISRVEAEDLGVYFCSQSTHVPFTFGSGTKLEIK | 1.87 | 0.305 |
| 101E4 (antibody, V domains shown, Mouse hybridoma monoclonal antibody (SJL mice); detected with anti-mouse IgG) VH: EVQLVESGGGLVQPKGSLKLSCAASGFSFNPYAMNWVRQGPGKGLEWVARIRSKSNNYATYYADSVKDRFTISRDDSENILYLQMNNLKTEDTAMYYCVRDYYGGRSSIGMDYWGHGTSVTVSS VL: DIVMTQAAPSVPVTPGESVSISCRSSKSLLHSNGNTYLYWFLQRPGQSPQLLIYRMSNLASGVPDRFSGSGSGTAFTLRISRVEAEDVGVYYCLQHLEYPFTFGGGTKLELK | 0.27 | 0.409 |
| 3F11 (antibody, V domains shown, Mouse hybridoma monoclonal antibody) VH: EVQLVESGGGLVQPKGSLKLSCAASGFSFNTYAMNWVRQAPGKGLEWVARIRSKSNYYATYYADSVKDRFTISRDDSESMLYLQMNNLKTEDTAMYYCVRGRELGDYYAMDYWGQGTSVTVSS VL: DIVMTQAAPSVPVTPGESVSISCRSSKSLLHSNGNTYLYWFLQRPGQSPQLLIYRMSNLASGVPNRFSGSGSGTAFTLRISRVEAEDVGVYYCMQHLEYPFTFGSGTKLEIK | 0.27 | 0.957 |
| 3F6 (antibody, V domains shown, Mouse hybridoma monoclonal antibody) VH: EVQFVESGGGLVQPKGSLKLSCAASGFSFNTYAMNWVRQAPGKGLEWVARIRTKSNNYATHYADSVKDRFIVSRDDSENILYLQMNNLKTEDTGMYYCVRGGNGIYGRNAMDNWGQGTSVTVSS VL: DIVMTQAAPSVPVSPGESVSISCRSSKSLLHSSGNTYLYWFLQRPGQSPQLLIYRMSNLASGVPDRFSGSGSGTAFTLRISRVEAEDVGVYYCMQHLEYPFTFGGGTKLEIK | 0.51 | 2.29 |
| 118H1 (antibody, V domains shown, Mouse hybridoma monoclonal antibody; also called 1181H1) VH: EVQLVESGGGLVQPKGSLKLSCAASGFSFNPYAMNWVRQAPGKGLEWIARIRSKSNNYAAYYADSVKDRFTISRDDSENILYLQMKNLITEDTAMYYCVRDYYGTRPSIGMDYWGRGTSVTVSS VL: DIAMTQAAPSVFVTPGESVSISCRSSQSLLHSNGNTYLYWFLQRPGRSPQLLIYRMSNLASGVPDRFSGSGSGTGFTLRISRVEAEDVGVYYCMQHLEYPFTFGAGTKLELK | 1.43 | 0.466 |
| 172E7 (antibody, V domains shown, Mouse hybridoma monoclonal antibody) VH: EVQLQQSGPVLVKPGASVKMSCKASGYTFTDNYMNWMKQSHGKTLEWIGVINPYNGVTRYNQKFRDKATLTVDKSSSTAYMDLNSLTSEDSAVYYCSNSLSWGPGTSLTVSS VL: not shown | 2.01 | 6.99 |

Further binders by falling EC50 (human CCR8 [2]), results first:

| Tango IC50 (human CCR8 [1]) [nM] | EC50 (human CCR8 [2]) [nM] | Binder |
| --- | --- | --- |
| 0.83 | 20.6 | 103G4 (antibody, V domains shown, Mouse hybridoma monoclonal antibody) VH: EVQLVESGGGLVRPKGSLKLSCAASGFSFNPYALNWVRQAPGKGLEWVARIRSKSNNYATYYADSVKDRFTISRDDSENILYLQMNNLKTEDTAMYYCVKDYYGTRPSIGMDYWGQGTSVTVSS VL: DIVMTQAAPSVPVTPGESVSISCRSSRSLLHSNGNTYLYWFLQRPGQSPHLLIYRMSNLASGVPDRFSGSGSGTAFTLRISRVEAEDVGVYYCMQHLEYPFTFGAGTKLELK |
| 2.61 | 4.49 | 4G19 (antibody, V domains shown, Mouse hybridoma monoclonal antibody) VH: EVQFVESGGGLVQPKGSLKLSCAASGFSFNTYAMNWVRQAPGKGLEWVARIRTKSNNYATHYADSVTDRFIVSRDDSESMTYLQMNNLKTEDTGMYYCVRGGNGIYGRNTMDNWGQGTSVTVSS VL: DIVMTQTAPSVPVSPGESVSISCRSSKSLLHSSGNTYLYWFLQRPGQSPQLLIYRMSNLASGVPDRFSGSGSGTAFTLRISRVEAEDVGVYYCMQHLEYPFTFGGGTKLEIQ |
| 1.82 | 2.94 | 1G17 (antibody, V domains shown, Mouse hybridoma monoclonal antibody) VH: QVQLQQSGAELVRPGASVTLSCKASGYTFADYEMHWVKQTPVLGLEWIGAIDPETGRTAYNQKFKFKATLTADRSSSTAYMELRSLTSEDSAVYYCTRRAYWGGWGQGTTLTVSS VL: DVVMTQTPLSLPVSLGDQASISCRSSQSLVHSSGNTYLHWYLQKPGQSPKLLIYKVSNRFSGVPDRFSGSGSGTDFTLKISRVEAEDLGVYFCSQSTHVPYTFGGGTKLEIK |
| 1.23 | 0.826 | 2L15 (antibody, V domains shown, Mouse hybridoma monoclonal antibody) VH: EVQLVESGGGLVQPKGSLKLSCAASGFSFNTYAMNWVRQAPGKGLEWVARIRSKSNNYATYYADSVKDRFTISRADSESMLYLQMNNLKTEDTAMYYCVRGKDISVSYAMDYWGQGTSVTVSS VL: DIVMTQAAPSVPVTPGESVSISCRSSKSLQHSNGNTYLYWFLQRPGQSPQLLIYRMSNLASGVPDRFSGSGSGTAFTLRISRVETEDVGVYYCMQHLEYPFTFGSGTKLEIK |
| 0.47 | 0.775 | 4M13 (antibody, V domains shown, Mouse hybridoma monoclonal antibody) VH: EVQLVESGGGLVQPKGSLKLSCAASGFSFNTYAMNWVRQAPGKGLEWVARMRSKSNNYATYYADSVKDRFTISRDDSESMLYLQMNNLKTEDTAMYYCVRGKDTSGSYAMDYWGQGTSVSVSS VL: DIVMTQAAPSVPVTPGESVSISCRSSKSLLHSNGNTYLYWFLQRPGQSPHLLIYRMSNLASGVPDRFSGSGSGTAFTLRISKVETEDVGVYYCMQHLEYPFTFGSGTKLEIK |
| 0.33 | 0.302 | 170G6 (antibody, V domains shown, Mouse hybridoma monoclonal antibody) VH: EVQLQQSGPVLVKPGASVKMSCKASGYTFTDNYMNWVKQSHGKSLEWIGVINPYNGVTRYNQKFRGKATLTADKSSSTAFMDLNSLTSEDSAVYYCSNSLSWGPGTTLTVSS VL: not shown |
| 1.86 | 0.195 | 84B4 (antibody, V domains shown, Mouse hybridoma monoclonal antibody) VH: EVQLQQSGPVLVKPGASVKMSCKASGFTITDYYFNWVKQSHGKSLEWIGIINPYNGVARYKQKFKGKATLTVDKSSSTVYLEFSGLTSEDSAVYYCVRFVYGTTYDYAMDYWGQGTSVTVSS VL: DVLMTQTPLSLPVSLGDQASISCRSSQSIVHSNGNTYLEWYVQKPGQSPKLLIYKVSNRFSGVPDRFSGSGSGTDFTLKISRVEAEDLGVYYCFQGSHVPPTFGGGTKLEIK |
